Changes are numbered by the printed parent chain. Numbers in names are those of the source.
How the values were obtained:
[1] = tested on: PDE activity in GH4C1 cells; test: Effect of PDE inhibitors, forskolin and VIP on cAMP levels (Ca2+ influx through CNG channels); type: cell-based, rat; conditions: C460W/E583M channels
Procedure: To further test the utility of this approach, PDE activity in excitable GH4C1 pituitary cells was examined. In all of the experiments shown (See, FIGS. 13-14, and Table 2), 1 μM nimodipine was added at time zero to block Ca^2+ influx though voltage-gated Ca^2+ channels (triggered by membrane depolarization due to Ca^2+ and Na^+ influx through CNG channels). […] FIGS. 13 and 14 each depict experiments done on a single batch of cells. As before, similar results were obtained on three other batches. In the experiments that produced the data shown in Table 2, cAMP concentrations were monitored using Ca^2+ influx through C460W/E583M channels. […] Either 100 μM IBMX or vehicle (-IBMX; control) were added at time zero. Then, 50 μM forskolin were added at 180 seconds d(ΔF/F0)/dt, which is proportional to the Ca^2+ influx rate, was estimated as described in the Examples. Data are provided as mean±standard error. IBMX or vehicle was added at 60 seconds (first arrow in FIG. 13). Either 10 μM forskolin or 100 nM VIP were added at 240 seconds (second arrow in FIG. 13). In the absence of IBMX, large forskolin or VIP-induced increases in Ca^2+ influx were observed. […] This level of basal AC activity was quite different from that observed in HEK-293 cells (See, FIGS. 9 and 10). 1 μM nimodipine was added at time 0 to block endogenous voltage-gated Ca^2+ channels.
To identify the PDE family or families that regulate the local cAMP concentration in GH4C1 cells, cAMP accumulation was monitored in the presence and absence of PDE inhibitors (See, Table 2). Again, the high cAMP affinity C460W/E583M channels were used. PDE inhibitors were added at 60 s. Although the addition of IBMX alone triggered Ca^2+ influx, 10 μM forskolin were added at 240 s as a positive control for CNG channel activity. […] This PDE is likely to have a low Km for cAMP because it is capable of regulating cAMP at concentrations too low for the WT or Δ61-90/C460W/E583M channels to detect. Thus, it is contemplated that a Ca^2+-CaM stimulated PDE (type I) is primarily responsible for controlling basal cAMP signals in GH4C1 cells.
In addition, PDE activity was monitored using Δ61-90/C460W/E583M channels to detect changes in cAMP concentration (See, FIG. 14). PDE inhibitors and forskolin were added as described above. With this construct, it was not possible to observe changes in cAMP concentration due to inhibition of PDE activity alone. […] Inhibitors specific to other PDE types had no effect on the forskolin-induced Ca^2+ influx (data not shown). […] It is contemplated that Ca^2+ influx through the C460W/E583M channels was saturated at cAMP concentrations below the Km for this PDE. Thus, it is contemplated that there are two different PDE types that regulate local cAMP signals in GH4C1 cells: a low Km, 8-methoxymethyl-IBMX sensitive PDE (type I); and a high Km, RO-20-1724-, rolipram-sensitive PDE (type IV).
GH4C1 rat pituitary cells (ATCC) were maintained in 13 mL Ham's F-10 medium (Life Technologies) supplemented with 14.3 mM NaHCO3, 15% donor horse serum (Gemini), and 2.5% fetal bovine serum, pH 6.8, in 75 cm^2 flasks at 37° C. in a humidified atmosphere of 95% air and 5% CO2. Cells were split weekly (1:4) and washed with fresh medium twice weekly. Cells were plated at ˜60% confluence in 100 mm culture dishes twenty-four hours prior to infection with the CNG-channel-encoding adenovirus constructs (multiplicity of infection=50 plaque forming units per cell). Forty-eight hours post-infection cells were detached, resuspended in serum-containing medium, and assayed within 12 hours.
In this Example, experiments conducted to examine the response of excitable GH4C1 pituitary cells to stimulation by either forskolin or the hormone vasoactive intestinal peptide (VIP), in the presence of absence of PDE inhibitors are described. […]

[2] = tested on: HEK-293 cells expressing CNG channels; test: Forskolin-induced cAMP accumulation monitored by Ca2+ influx (fura-2) through expressed CNG channels; type: cell-based, human
Procedure: Next, experiments were conducted to assess the ability of each channel construct to detect increases in local cAMP concentration. Changes in cAMP concentration were detected using fura-2 to monitor Ca^2+ influx through CNG channels, as described in the Examples. Ca^2+ influx induced by different concentrations of forskolin, an AC activator, in the presence of 100 μM IBMX, a nonselective PDE inhibitor was measured. This approach allowed comparisons to be made between the cAMP sensitivities of the different channels to changes in cAMP, regardless of variations in expression levels between experiments. In HEK-293 cells expressing the WT channel, addition of forskolin was followed by a brief delay and an increase in Ca^2+ influx (See, FIG. 7, Panel A). The delay decreased and the rate of Ca^2+ influx increased in a dose-dependent manner. Neither effect was saturated at 50 μM forskolin. In cells expressing the E583M channel, addition of forskolin was also followed by a brief delay and an increase in Ca^2+ influx (FIG. 7, Panel B). As with the WT channel, the delay and the initial rate of Ca^2+ influx were dose-dependent. […] In cells expressing the Δ61-90/C460W/E583M channel, addition of forskolin caused similar increases in Ca^2+ influx as the E583M channel, including saturation of the delay and rate of influx at 20 μM (compare FIG. 7, Panel B with FIG. 7, Panel D). The increased response of the modified channels to forskolin treatment is consistent with the apparent cAMP affinities measured in excised patches in the absence of Ca^2+-CaM (C460W/E583M>E583M˜Δ61-90/C460W/E583>WT channels). There are several factors that may have contributed to the apparent lack of a Ca^2+-CaM effect on the channels.
Briefly, HEK-293 were maintained in MEM (Life Technologies Inc.) supplemented with 26.2 mM NaHCO3, 10% (v/v) fetal bovine serum (Gemini), penicillin (50 μg/mL), and streptomycin ([…]), pH 7.0, at 37° C. in a humidified atmosphere of 95% air and 5% CO2. Cells were plated at ˜60% confluence in 100 mm culture dishes twenty-four hours prior to infection with the CNG-channel-encoding adenovirus constructs (multiplicity of infection=10 plaque forming units per cell). […] Twenty-four hours post-infection cells were detached with phosphate-buffered saline containing 0.03% EDTA, resuspended in serum-containing medium, and assayed within 12 hours.

PDE III = conditions: cited from earlier work
[3] = tested on: rat olfactory CNG channel α subunit; test: Excised inside-out patch recordings, cyclic nucleotide dose-response of CNG channel constructs; type: biochemical; conditions: for Imax^cGMP/Imax^cAMP: current at saturating cGMP divided by current at saturating cAMP
Procedure: As described in greater detail herein, the effects of modifications to CNG channels were assessed using the Hill equation, I/Imax=[cNMP]^N/([cNMP]^N+K1/2^N), where I/Imax is the fraction of maximal current, cNMP represents cyclic nucleotide, K1/2 is the concentration that gives half-maximal current, and N is the Hill coefficient, an index of cooperativity. I/Imax^cGMP/Imax^cAMP is the current induced by saturating cGMP divided by the current induced by saturating cAMP. Data (mean±standard deviation of three experiments) were obtained from excised membrane patches using standard patch clamp techniques.
To assess the cyclic nucleotide sensitivity of different CNG channel constructs, excised, inside-out patch recordings were made at room temperature (20-21° C.) using an Axopatch-200A patch clamp amplifier (Axon Instruments Inc.). Pipettes were pulled from borosilicate glass and heat polished. Pipettes were lowered onto the cells and gigaohm seals were formed. Patches were excised by shearing cells from the pipette with a jet of liquid. Ionic currents were elicited by 250 ms pulses to membrane potentials of +50 and −50 mV from a holding potential of 0 mV. Current records were sampled at five times the filter setting and stored on an IBM compatible computer. Records were corrected for errors due to series resistance (pipette resistance was 4.1 ±0.1 MΩ). Both the pipette and bath solutions contained (mM): 130 NaCl, 2 HEPES, 0.02 EDTA, and 1 EGTA, pH 7.6. Cyclic nucleotide-induced currents were obtained from the difference between currents in the presence and absence of cyclic nucleotides. Dose response curves for cAMP and cGMP were obtained at +50 and −50 mV in the same patch. The effects of the modifications were assessed using the Hill equation, I/Imax=[cNMP]^N/([cNMP]^N+K1/2^N), where I/Imax is the fraction of maximal current, cNMP represents cyclic nucleotide, K1/2 is the concentration that gives half-maximal current, and N is the Hill coefficient, an index of cooperativity. K1/2 and N for cAMP were 36±5 μM, 10±2 μM, 1.0±0.3 μM, and […] for WT, E583M, C460/E583M, and Δ61-90/C460W/E583M channels, respectively (See, Rich et al., J. Gen. Physiol. [2001], supra).
The cyclic nucleotide sensitivity of the C460W/E583M CNG channel was assessed in excised, inside-out patches as known in the art (See, Rich et al. [2001], supra). K1/2 and N were 1.1±0.3 μM and 2.1±0.4 at +50 mV; and 1.0±0.3 μM and 2.0 ±0.3 at −50 mV (n=11). With these values, the cAMP concentration could be calculated from currents measured in perforated patch experiments (Rich et al. Proc. Natl. Acad. Sci. [2001], supra).

For vasoactive intestinal peptide [VIP], the “cAMP accumulation and Ca2+ influx after AC stimulation” value ([1]; 10 μM forskolin or 100 nM VIP after IBMX or vehicle) was “caused additional cAMP accumulation and Ca^2+ influx”.

For `C=C[C@@]1(C)CC(=O)[C@]2(O)[C@@]3(C)[C@@H](O)CCC(C)(C)[C@@H]3[C@H](O)[C@H](OC(C)=O)[C@@]2(C)O1` [forskolin], the “forskolin-induced increase in cAMP concentration averaged throughout the accessible cell volume” value [2] was 1 to 2 µM and the “forskolin-induced increase in cAMP concentration measured using CNG channels” value ([2]; local, near plasma membrane) was > 25 µM.

For `C[C@@H]1C(=O)NC2=Nc3cccc(Cl)c3CN21` [Quazinone], the “d(ΔF/F0)/dt” value ([1]; basal cAMP, inhibitor concentration (μM)) is given as 0 s⁻¹ and the IC50 (PDE III) is given as 600 nM.

B1: E583M: modified rat olfactory cyclic nucleotide-gated ion channel containing the E583M mutation, SEQ ID NO:5 (protein, listed as Rattus norvegicus)
chain: MMTEKSNGVKSSPANNHNHHPPPSIKANGKDDHRAGSRPQSVAADDDTSPELQRLAEMDTPRRGRGGFQRIVRLVGVIRDWANKNFREEEPRPDSFLERFRGPELQTVTTHQGDDKGGKDGEGKGTKKKFELFVLDPAGDWYYRWLFVIAMPVLYNWCLLVARACFSDLQRNYFVVWLVLDYFSDTVYIADLIIRLRTGFLEQGLLVKDPKKLRDNYIHTLQFKLDVASIIPTDLIYFAVGIHSPEVRFNRLLHFARMFEFFDRTETRTSYPNIFRISNLVLYILVIIHWNACIYYVISKSIGFGVDTWVYPNITDPEYGYLAREYIYCLYWSTLTLTTIGETPPPVKDEEYLFVIFDFLIGVLIFATIVGNVGSMISNMNATRAEFQAKIDAVKHYMQFRKVSKDMEAKVIKWFDYLWTNKKTVDEREVLKNLPAKLRAEIAINVHLSTLKKVRIFQDCEAGLLVELVLKLRPQVFSPGDYICRKGDIGKEMYIIKEGKLAVVADDGVTQYALLSAGSCFGEISILNIKGSKMGNRRTANIRSLGYSDLFCLSKDDLMEAVTEYPDAKKVLEERGREILMKMGLLDENEVAASMEVDVQEKLEQLETNMDTLYTRFARLLAEYTGAQQKLKQRITVLETKMKQNHEDDYLSDGINTPEPTAAE
With B1 the “forskolin concentration at which delay and rate of Ca2+ influx saturated” value ([2]; 100 μM IBMX, forskolin 0-50 μM) was 20 µM, the “Imax^cGMP/Imax^cAMP” value ([3]; +50 mV) was 0.40 ± 0.10 and the “Imax^cGMP/Imax^cAMP” value ([3]; −50 mV) was 0.35 ± 0.16. For the same molecule, the “current elicited by saturating cGMP as % of the current elicited by saturating cAMP” value ([3]; excised patches) was ~40%.

B2: WT: wild-type rat olfactory cyclic nucleotide gated channel α subunit, amino acid sequence SEQ ID NO:8 (protein, listed as Rattus norvegicus)
chain: B1 chain with M583E
In the case of B2, the “Imax^cGMP/Imax^cAMP” value ([3]; +50 mV) is reported as 1.0 and the “Imax^cGMP/Imax^cAMP” value ([3]; −50 mV) is reported as 1.0.
